Laboratory results: patent US20250115669A1, “FGFR1/KLB Targeting Agonistic Antigen-Binding Proteins and Conjugates Thereof with GLP-1R Agonistic Peptides” (SANOFI, priority 2020, published 2025)

T1: human beta-Klotho (Homo sapiens, UniProt Q86Z14)
T1 sequence (Q86Z14 1-1044): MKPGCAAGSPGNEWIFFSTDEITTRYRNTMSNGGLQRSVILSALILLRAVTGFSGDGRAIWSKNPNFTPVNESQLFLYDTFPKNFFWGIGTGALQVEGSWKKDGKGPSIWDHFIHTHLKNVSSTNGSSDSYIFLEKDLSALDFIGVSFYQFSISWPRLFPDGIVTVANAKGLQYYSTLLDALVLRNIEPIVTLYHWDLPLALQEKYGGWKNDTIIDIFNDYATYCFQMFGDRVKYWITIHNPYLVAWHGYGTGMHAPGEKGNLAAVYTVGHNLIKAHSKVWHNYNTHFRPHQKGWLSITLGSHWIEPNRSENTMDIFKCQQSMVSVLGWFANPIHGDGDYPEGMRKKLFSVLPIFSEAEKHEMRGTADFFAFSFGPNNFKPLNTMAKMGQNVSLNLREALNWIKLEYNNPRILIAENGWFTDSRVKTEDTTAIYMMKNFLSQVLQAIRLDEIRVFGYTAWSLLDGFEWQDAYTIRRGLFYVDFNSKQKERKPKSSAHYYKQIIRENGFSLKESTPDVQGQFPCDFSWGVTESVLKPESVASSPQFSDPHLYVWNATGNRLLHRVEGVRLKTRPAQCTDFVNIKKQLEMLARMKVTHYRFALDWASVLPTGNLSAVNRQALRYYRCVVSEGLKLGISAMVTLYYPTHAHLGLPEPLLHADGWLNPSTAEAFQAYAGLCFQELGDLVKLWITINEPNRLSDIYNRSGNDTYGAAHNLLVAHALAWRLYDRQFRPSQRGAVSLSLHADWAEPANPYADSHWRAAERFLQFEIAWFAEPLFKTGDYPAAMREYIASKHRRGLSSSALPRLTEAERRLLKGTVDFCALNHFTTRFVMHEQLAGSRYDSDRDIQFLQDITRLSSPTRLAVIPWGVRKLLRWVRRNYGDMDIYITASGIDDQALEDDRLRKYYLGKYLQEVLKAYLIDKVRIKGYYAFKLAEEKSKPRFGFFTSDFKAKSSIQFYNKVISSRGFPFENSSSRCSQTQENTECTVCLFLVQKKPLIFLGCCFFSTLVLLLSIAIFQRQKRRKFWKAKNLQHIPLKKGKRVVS


The molecules below were run against T1, human beta-Klotho (assay: SPR off-rate screening of antibody mutants (human beta-Klotho captured by anti-His antibody)). Conditions: mean, n=3.
Format: binding
Summary of the method: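 Anti-His capture on amine-coupled CM5 surface; analyte (mutant Ab) 50 nmol/L; assoc 240 sec / dissoc 300 sec; regeneration per capture kit; kd by single-exponential fit.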

Molecule	koff human KLB
Ab0344: IgG4 PE; 16H7 VL (N25S, D49A, D50A, D91E, N93S); 16H7 VH (M34V, I83T, D109E) (antibody) VH: QVTLKESGPVLVKPTETLTLTCTVSGFSLNNARVGVSWIRQPPGKALEWLAHIFSNDEKSYSTSLKSRLTISKDTSKSQVVLTMTNMDPVDTATYYCARSVVTGGYYYEGMDVWGQGTTVTVSS light: SYVLTQPPSVSVAPGQTARITCGGSNIGSESVHWYQQKPGQAPVLVVYAASDRPSGIPERFSGSNSGNTATLTISRVEAGDEADYYCQVWEGSSDHVVFGGGTKLTVLGQPKANPTVTLFPPSSEELQANKATLVCLISDFYPGAVTVAWKADGSPVKAGVETTKPSKQSNNKYAASSYLSLTPEQWKSHRSYSCQVTHEGSTVEKTVAPTECS	0.00168 s⁻¹
Ab0337: IgG4 PE; 16H7 VL (N25S, D49S, D50H, D91E, N93E); 16H7 VH (M34V, I83T, D109E) (antibody) VH: QVTLKESGPVLVKPTETLTLTCTVSGFSLNNARVGVSWIRQPPGKALEWLAHIFSNDEKSYSTSLKSRLTISKDTSKSQVVLTMTNMDPVDTATYYCARSVVTGGYYYEGMDVWGQGTTVTVSS light: SYVLTQPPSVSVAPGQTARITCGGSNIGSESVHWYQQKPGQAPVLVVYSHSDRPSGIPERFSGSNSGNTATLTISRVEAGDEADYYCQVWEGESDHVVFGGGTKLTVLGQPKANPTVTLFPPSSEELQANKATLVCLISDFYPGAVTVAWKADGSPVKAGVETTKPSKQSNNKYAASSYLSLTPEQWKSHRSYSCQVTHEGSTVEKTVAPTECS	0.0005296 s⁻¹
Ab0342: IgG4 PE; 16H7 VL (N25S, D49A, D50A, D91A, N93E); 16H7 VH (M34V, I83T, D109E) (antibody) VH: QVTLKESGPVLVKPTETLTLTCTVSGFSLNNARVGVSWIRQPPGKALEWLAHIFSNDEKSYSTSLKSRLTISKDTSKSQVVLTMTNMDPVDTATYYCARSVVTGGYYYEGMDVWGQGTTVTVSS light: SYVLTQPPSVSVAPGQTARITCGGSNIGSESVHWYQQKPGQAPVLVVYAASDRPSGIPERFSGSNSGNTATLTISRVEAGDEADYYCQVWAGESDHVVFGGGTKLTVLGQPKANPTVTLFPPSSEELQANKATLVCLISDFYPGAVTVAWKADGSPVKAGVETTKPSKQSNNKYAASSYLSLTPEQWKSHRSYSCQVTHEGSTVEKTVAPTECS	invalid fit
Ab0334: IgG4 PE; 16H7 VL (N25S, D49S, D50A, D91A, N93S); 16H7 VH (M34V, I83T, D109E) (antibody) VH: QVTLKESGPVLVKPTETLTLTCTVSGFSLNNARVGVSWIRQPPGKALEWLAHIFSNDEKSYSTSLKSRLTISKDTSKSQVVLTMTNMDPVDTATYYCARSVVTGGYYYEGMDVWGQGTTVTVSS light: SYVLTQPPSVSVAPGQTARITCGGSNIGSESVHWYQQKPGQAPVLVVYSASDRPSGIPERFSGSNSGNTATLTISRVEAGDEADYYCQVWAGSSDHVVFGGGTKLTVLGQPKANPTVTLFPPSSEELQANKATLVCLISDFYPGAVTVAWKADGSPVKAGVETTKPSKQSNNKYAASSYLSLTPEQWKSHRSYSCQVTHEGSTVEKTVAPTECS	invalid fit
Ab0336: IgG4 PE; 16H7 VL (N25S, D49S, D50H, D91A, N93S); 16H7 VH (M34V, I83T, D109E) (antibody) VH: QVTLKESGPVLVKPTETLTLTCTVSGFSLNNARVGVSWIRQPPGKALEWLAHIFSNDEKSYSTSLKSRLTISKDTSKSQVVLTMTNMDPVDTATYYCARSVVTGGYYYEGMDVWGQGTTVTVSS light: SYVLTQPPSVSVAPGQTARITCGGSNIGSESVHWYQQKPGQAPVLVVYSHSDRPSGIPERFSGSNSGNTATLTISRVEAGDEADYYCQVWAGSSDHVVFGGGTKLTVLGQPKANPTVTLFPPSSEELQANKATLVCLISDFYPGAVTVAWKADGSPVKAGVETTKPSKQSNNKYAASSYLSLTPEQWKSHRSYSCQVTHEGSTVEKTVAPTECS	invalid fit

Next, values leading:

koff human KLB	Molecule
0.0002507 s⁻¹	Ab0333: IgG4 PE; 16H7 VL (N25S, D49S, D50Y, D91A, N93S); 16H7 VH (M34V, I83T, D109E) (antibody) VH: QVTLKESGPVLVKPTETLTLTCTVSGFSLNNARVGVSWIRQPPGKALEWLAHIFSNDEKSYSTSLKSRLTISKDTSKSQVVLTMTNMDPVDTATYYCARSVVTGGYYYEGMDVWGQGTTVTVSS light: SYVLTQPPSVSVAPGQTARITCGGSNIGSESVHWYQQKPGQAPVLVVYSYSDRPSGIPERFSGSNSGNTATLTISRVEAGDEADYYCQVWAGSSDHVVFGGGTKLTVLGQPKANPTVTLFPPSSEELQANKATLVCLISDFYPGAVTVAWKADGSPVKAGVETTKPSKQSNNKYAASSYLSLTPEQWKSHRSYSCQVTHEGSTVEKTVAPTECS
invalid fit	Ab0343: IgG4 PE; 16H7 VL (N25S, D49A, D50A, D91A, N93S); 16H7 VH (M34V, I83T, D109E) (antibody) VH: QVTLKESGPVLVKPTETLTLTCTVSGFSLNNARVGVSWIRQPPGKALEWLAHIFSNDEKSYSTSLKSRLTISKDTSKSQVVLTMTNMDPVDTATYYCARSVVTGGYYYEGMDVWGQGTTVTVSS light: SYVLTQPPSVSVAPGQTARITCGGSNIGSESVHWYQQKPGQAPVLVVYAASDRPSGIPERFSGSNSGNTATLTISRVEAGDEADYYCQVWAGSSDHVVFGGGTKLTVLGQPKANPTVTLFPPSSEELQANKATLVCLISDFYPGAVTVAWKADGSPVKAGVETTKPSKQSNNKYAASSYLSLTPEQWKSHRSYSCQVTHEGSTVEKTVAPTECS
invalid fit	Ab0341: IgG4 PE; 16H7 VL (N25S, D49A, D50Y, D91A, N93S); 16H7 VH (M34V, I83T, D109E) (antibody) VH: QVTLKESGPVLVKPTETLTLTCTVSGFSLNNARVGVSWIRQPPGKALEWLAHIFSNDEKSYSTSLKSRLTISKDTSKSQVVLTMTNMDPVDTATYYCARSVVTGGYYYEGMDVWGQGTTVTVSS light: SYVLTQPPSVSVAPGQTARITCGGSNIGSESVHWYQQKPGQAPVLVVYAYSDRPSGIPERFSGSNSGNTATLTISRVEAGDEADYYCQVWAGSSDHVVFGGGTKLTVLGQPKANPTVTLFPPSSEELQANKATLVCLISDFYPGAVTVAWKADGSPVKAGVETTKPSKQSNNKYAASSYLSLTPEQWKSHRSYSCQVTHEGSTVEKTVAPTECS
invalid fit	Ab0339: IgG4 PE; 16H7 VL (N25S, D49A, D50E, D91A, N93S); 16H7 VH (M34V, I83T, D109E) (antibody) VH: QVTLKESGPVLVKPTETLTLTCTVSGFSLNNARVGVSWIRQPPGKALEWLAHIFSNDEKSYSTSLKSRLTISKDTSKSQVVLTMTNMDPVDTATYYCARSVVTGGYYYEGMDVWGQGTTVTVSS light: SYVLTQPPSVSVAPGQTARITCGGSNIGSESVHWYQQKPGQAPVLVVYAESDRPSGIPERFSGSNSGNTATLTISRVEAGDEADYYCQVWAGSSDHVVFGGGTKLTVLGQPKANPTVTLFPPSSEELQANKATLVCLISDFYPGAVTVAWKADGSPVKAGVETTKPSKQSNNKYAASSYLSLTPEQWKSHRSYSCQVTHEGSTVEKTVAPTECS
0.0004292 s⁻¹	Ab0338: IgG4 PE; 16H7 VL (N25S, D49S, D50S, D91A, N93S); 16H7 VH (M34V, I83T, D109E) (antibody) VH: QVTLKESGPVLVKPTETLTLTCTVSGFSLNNARVGVSWIRQPPGKALEWLAHIFSNDEKSYSTSLKSRLTISKDTSKSQVVLTMTNMDPVDTATYYCARSVVTGGYYYEGMDVWGQGTTVTVSS light: SYVLTQPPSVSVAPGQTARITCGGSNIGSESVHWYQQKPGQAPVLVVYSSSDRPSGIPERFSGSNSGNTATLTISRVEAGDEADYYCQVWAGSSDHVVFGGGTKLTVLGQPKANPTVTLFPPSSEELQANKATLVCLISDFYPGAVTVAWKADGSPVKAGVETTKPSKQSNNKYAASSYLSLTPEQWKSHRSYSCQVTHEGSTVEKTVAPTECS
0.00176 s⁻¹	Ab0340: IgG4 PE; 16H7 VL (N25S, D49A, D50E, D91E, N93S); 16H7 VH (M34V, I83T, D109E) (antibody) VH: QVTLKESGPVLVKPTETLTLTCTVSGFSLNNARVGVSWIRQPPGKALEWLAHIFSNDEKSYSTSLKSRLTISKDTSKSQVVLTMTNMDPVDTATYYCARSVVTGGYYYEGMDVWGQGTTVTVSS light: SYVLTQPPSVSVAPGQTARITCGGSNIGSESVHWYQQKPGQAPVLVVYAESDRPSGIPERFSGSNSGNTATLTISRVEAGDEADYYCQVWEGSSDHVVFGGGTKLTVLGQPKANPTVTLFPPSSEELQANKATLVCLISDFYPGAVTVAWKADGSPVKAGVETTKPSKQSNNKYAASSYLSLTPEQWKSHRSYSCQVTHEGSTVEKTVAPTECS
